The values that follow come from PMC11230438.

This assay deals with high-stability mutant of the MMP-9 catalytic domain lacking the fibronectin-like domain (MMP9CAT*) (human) (UniProt P14780). The experiment in a line: enzymatic activity inhibition assay.

B1: N-TIMP2 (WT N-terminal domain of TIMP2 containing internal FLAG-tag, c-myc-tag and His-tag) (domain or fragment)
chain: CSCSPVHPQQAFCNADVVIRAKAVSEKEVDSGNDIYGNPIKRIQYEIKQIKMFKGPEDIEFIYTAPSSAVCGVSLDVGGKKEYLIAGKAEGDGKMHITLCDFIVPWDTLSTTQKKSLNHRYQMGCE
The Ki is a measure of affinity in units of concentration, obtained from inhibition or displacement. A high value points to weaker binding. With B1, the Ki amounted to 0.32 nM.

B2: N-TIMP2-PAT200 (protein)
chain: CSCSPVHPQQAFCNADVVIRAKAVSEKEVDSGNDIYGNPIKRIQYEIKQIKMFKGPEDIEFIYTAPSSAVCGVSLDVGGKKEYLIAGKAEGDGKMHITLCDFIVPWDTLSTTQKKSLNHRYQMGCEATPTPAPTAPTTPTPTPTTPAPTTPTTPATPAPTTPATPAPTPATPTPAAPAPTTPTPAAPAPTPATPTAPAPTTPTAPTAPTPATPATPAAPTPTPTTPTTPTAPAAPTPTAPTAPAPTAPTAPTAPATPAAPATPTPAPTAPATPTPAAPTTPTAPTPTPTPAPATPAAPAPTPATPAAPTTPAAPTAPAAPTTPTPT
For B2, the Ki was 0.59 nM.

B3: N-TIMP2-PAT100 (protein)
chain: CSCSPVHPQQAFCNADVVIRAKAVSEKEVDSGNDIYGNPIKRIQYEIKQIKMFKGPEDIEFIYTAPSSAVCGVSLDVGGKKEYLIAGKAEGDGKMHITLCDFIVPWDTLSTTQKKSLNHRYQMGCETAPAAPATPAPTAPTPTPAAPAPTTPATPAPTPAAPAPAPTAPTAPAAPTAPATPAAPTTPTPTTPTPATPTPTAPAPATPTTPTPTAPAAPTPAPTTPA
B3: the Ki amounted to 0.24 nM.
